For data set [1], the system named is HeLa Kyoto. The data set is described as follows: solubility change mitosis vs G1/S (difference of NP-40 vs SDS log2 ratios) (log2 ratio difference); higher = more soluble in mitosis.
The subject of data set [2] is HeLa Kyoto. As to the kind of experiment: solubility in G1/S (NP-40 vs SDS abundance) (log2 ratio); higher = more soluble. Particulars: cell cycle stage: G1/S.
The subject of data set [3] is HeLa Kyoto. As to the kind of experiment: thermal stability score vs G1/S (z-score of summed log2 fold changes over temperatures); higher = more thermally stable than in G1/S.
For data set [4], the system named is HeLa Kyoto. The data set is described as follows: melting temperature (median over replicates), in situ; higher = more thermally stable.
[5] abbreviates: cell cycle stage: early G1 (4.5 h after nocodazole release).
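Wherever melting temperature (median over replicates), in situ is given: HeLa Kyoto cells synchronized by double thymidine or nocodazole block, proteins quantified by TMT10plex mass spectrometry, three independent biological replicates.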
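Wherever solubility change mitosis vs G1/S (difference of NP-40 vs SDS log2 ratios) is given: synchronized HeLa Kyoto cells (double thymidine block for G1/S, nocodazole release for mitosis), protein amounts in NP-40 versus SDS lysates quantified by mass spectrometry, three biological replicates.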
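Wherever solubility in G1/S (NP-40 vs SDS abundance) is given: HeLa Kyoto cells arrested at G1/S by double thymidine block, proteins quantified by TMT10plex mass spectrometry in mild NP-40 versus SDS extracts, three biological replicates.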
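Wherever thermal stability score vs G1/S (z-score of summed log2 fold changes over temperatures) is given: synchronized HeLa Kyoto cells, proteins quantified by TMT10plex mass spectrometry, three biological replicates, mitosis taken 0.5 h after nocodazole release, G1/S directly after double thymidine block.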

TSC2, sequence (chain, as listed by the source): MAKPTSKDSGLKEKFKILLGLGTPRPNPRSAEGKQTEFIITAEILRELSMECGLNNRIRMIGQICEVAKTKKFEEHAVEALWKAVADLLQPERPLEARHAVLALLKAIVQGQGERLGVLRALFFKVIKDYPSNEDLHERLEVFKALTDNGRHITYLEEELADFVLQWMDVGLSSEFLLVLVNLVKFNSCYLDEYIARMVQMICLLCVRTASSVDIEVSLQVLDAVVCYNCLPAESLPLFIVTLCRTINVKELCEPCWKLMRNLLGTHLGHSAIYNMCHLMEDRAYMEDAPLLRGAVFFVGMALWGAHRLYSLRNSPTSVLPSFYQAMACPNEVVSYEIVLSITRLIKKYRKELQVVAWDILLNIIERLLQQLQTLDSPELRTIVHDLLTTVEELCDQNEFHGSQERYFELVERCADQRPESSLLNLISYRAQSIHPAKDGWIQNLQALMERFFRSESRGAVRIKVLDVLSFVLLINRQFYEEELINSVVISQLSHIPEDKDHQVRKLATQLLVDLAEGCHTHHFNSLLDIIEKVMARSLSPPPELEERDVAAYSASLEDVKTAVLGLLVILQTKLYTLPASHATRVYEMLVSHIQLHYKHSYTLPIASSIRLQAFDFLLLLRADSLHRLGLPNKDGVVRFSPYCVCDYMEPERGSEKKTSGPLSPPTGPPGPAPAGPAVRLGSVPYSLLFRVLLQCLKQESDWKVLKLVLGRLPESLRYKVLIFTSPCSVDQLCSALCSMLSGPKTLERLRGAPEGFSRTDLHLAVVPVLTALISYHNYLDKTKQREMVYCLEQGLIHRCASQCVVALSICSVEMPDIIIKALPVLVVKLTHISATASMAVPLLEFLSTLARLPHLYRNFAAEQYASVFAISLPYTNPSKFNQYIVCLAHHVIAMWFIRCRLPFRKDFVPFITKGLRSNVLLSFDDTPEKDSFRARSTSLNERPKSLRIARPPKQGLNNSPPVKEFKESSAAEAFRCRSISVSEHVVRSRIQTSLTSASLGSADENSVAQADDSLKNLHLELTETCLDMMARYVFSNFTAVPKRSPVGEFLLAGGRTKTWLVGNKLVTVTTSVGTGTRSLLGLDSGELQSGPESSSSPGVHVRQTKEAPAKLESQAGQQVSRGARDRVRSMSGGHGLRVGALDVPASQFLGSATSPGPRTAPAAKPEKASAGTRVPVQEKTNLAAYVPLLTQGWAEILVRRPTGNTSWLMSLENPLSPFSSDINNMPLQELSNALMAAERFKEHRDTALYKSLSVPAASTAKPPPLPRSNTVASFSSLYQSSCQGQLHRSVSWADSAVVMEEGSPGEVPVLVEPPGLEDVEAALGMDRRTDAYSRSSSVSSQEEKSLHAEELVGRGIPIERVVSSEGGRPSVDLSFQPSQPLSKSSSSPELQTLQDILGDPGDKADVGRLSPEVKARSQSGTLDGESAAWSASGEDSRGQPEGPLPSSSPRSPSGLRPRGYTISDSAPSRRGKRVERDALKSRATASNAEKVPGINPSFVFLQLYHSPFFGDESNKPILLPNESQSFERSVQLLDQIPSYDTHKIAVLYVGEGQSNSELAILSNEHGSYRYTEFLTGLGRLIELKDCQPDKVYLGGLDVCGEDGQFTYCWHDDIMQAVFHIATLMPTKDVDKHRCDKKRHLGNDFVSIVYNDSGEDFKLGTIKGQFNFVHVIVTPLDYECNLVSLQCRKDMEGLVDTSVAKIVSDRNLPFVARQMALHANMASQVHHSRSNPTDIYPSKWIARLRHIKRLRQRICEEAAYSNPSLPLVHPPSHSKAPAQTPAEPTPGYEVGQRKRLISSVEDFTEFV

“MALLFARSLRLCRWGAKRLGVASTEAQRGVSFKLEEKTAHSSLALFRDDTGVKYGLVGLEPTKVALNVERFREWAVVLADTAVTSGRHYWEVTVKRSQQFRIGVADVDMSRDSCIGVDDRSWVFTYAQRKWYTMLANEKAPVEGIGQPEKVGLLLEYEAQKLSLVDVSQVSVVHTLQTDFRGPVVPAFALWDGELLTHSGLEVPEGL [SPRYD4]”: the “solubility change mitosis (log2)” value in data set [1] is -0.14. Further, the “solubility in G1/S (log2)” value in data set [2] is -0.0415. The thermal stability score in data set [3] (setting [5]) was -1.47; in data set [3] (cell cycle stage: mitosis), -3.25. Moreover, the melting temperature is 53.9 °C in data set [4] (cell cycle stage: G1/S) and 54.8 °C in data set [4] (cell cycle stage: mitosis).
For the substance “MGDTSEDASIHRLEGTDLDCQVGGLICKSKSAASEQHVFKAPAPRPSLLGLDLLASLKRREREEKDDGEDKKKSKVSSYKDWEESKDDQKDAEEEGGDQAGQNIRKDRHYRSARVETPSHPGGVSEEFWERSRQRERERREHGVYASSKEEKDWKKEKSRDRDYDRKRDRDERDRSRHSSRSERDGGSERSSRRNEPESPRHRPKDAATPSRSTWEEEDSGYGSSRRSQWESPSPTPSYRDSERSHRLSTRDRDRSVRGKYSDDTPLPTPSYKYNEWADDRRHLGSTPRLSRGRGRREEGEEGISFDTEEERQQWEDDQRQADRDWYMMDEGYDEFHNPLAYSSEDYVRRREQHLHKQKQKRISAQRRQINEDNERWETNRMLTSGVVHRLEVDEDFEEDNAAKVHLMVHNLVPPFLDGRIVFTKQPEPVIPVKDATSDLAIIARKGSQTVRKHREQKERKKAQHKHWELAGTKLGDIMGVKKEEEPDKAVTEDGKVDYRTEQKFADHMKRKSEASSEFAKKKSILEQRQYLPIFAVQQELLTIIRDNSIVIVVGETGSGKTTQLTQYLHEDGYTDYGMIGCTQPRRVAAMSVAKRVSEEMGGNLGEEVGYAIRFEDCTSENTLIKYMTDGILLRESLREADLDHYSAIIMDEAHERSLNTDVLFGLLREVVARRSDLKLIVTSATMDAEKFAAFFGNVPIFHIPGRTFPVDILFSKTPQEDYVEAAVKQSLQVHLSGAPGDILIFMPGQEDIEVTSDQIVEHLEELENAPALAVLPIYSQLPSDLQAKIFQKAPDGVRKCIVATNIAETSLTVDGIMFVIDSGYCKLKVFNPRIGMDALQIYPISQANANQRSGRAGRTGPGQCFRLYTQSAYKNELLTTTVPEIQRTNLANVVLLLKSLGVQDLLQFHFMDPPPEDNMLNSMYQLWILGALDNTGGLTSTGRLMVEFPLDPALSKMLIVSCDMGCSSEILLIVSMLSVPAIFYRPKGREEESDQIREKFAVPESDHLTYLNVYLQWKNNNYSTIWCNDHFIHAKAMRKVREVRAQLKDIMVQQRMSLASCGTDWDIVRKCICAAYFHQAAKLKGIGEYVNIRTGMPCHLHPTSSLFGMGYTPDYIVYHELVMTTKEYMQCVTAVDGEWLAELGPMFYSVKQAGKSRQENRRRAKEEASAMEEEMALAEEQLRARRQEQEKRSPLGSVRSTKIYTPGRKEQGEPMTPRRTPARFGL [DHX38]”, in data set [1], the “solubility change mitosis (log2)” value was 0.0419. The “solubility in G1/S (log2)” value in data set [2] is -0.327. Further, the thermal stability score amounted to 0.477 in data set [3] (setting [5]) and 0.888 in data set [3] (cell cycle stage: mitosis). In addition, the results for the melting temperature in data set [4] (cell cycle stage: G1/S) and in data set [4] (cell cycle stage: mitosis) were 50.8 °C and 52 °C, respectively.
Regarding TSC2, the “solubility change mitosis (log2)” value in data set [1] was -0.0844. For the same substance, in data set [2], the “solubility in G1/S (log2)” value is -0.16. Also, the thermal stability score amounted to 0.00265 in data set [3] (setting [5]) and 0.786 in data set [3] (cell cycle stage: mitosis). In addition, the melting temperature in data set [4] (cell cycle stage: G1/S) is 49.6 °C; in data set [4] (cell cycle stage: mitosis) it was 50.9 °C.
As to “MAAATADPGAGNPQPGDSSGGGAGGGLPSPGEQELSRRLQRLYPAVNQQETPLPRSWSPKDKYNYIGLSQGNLRVHYKGHGKNHKDAASVRATHPIPAACGIYYFEVKIVSKGRDGYMGIGLSAQGVNMNRLPGWDKHSYGYHGDDGHSFCSSGTGQPYGPTFTTGDVIGCCVNLINGTCFYTKNGHSLGIAFTDLPANLYPTVGLQTPGEIVDANFGQQPFLFDIEDYMREWRAKVQGTVHCFPISARLGEWQAVLQNMVSSYLVHHGYCATATAFARMTETPIQEEQASIKNRQKIQKLVLEGRVGEAIETTQRFYPGLLEHNPNLLFMLKCRQFVEMVNGTDSEVRSLSSRSPKSQDSYPGSPSLSPRHGPSSSHMHNTGADSPSCSNGVASTKSKQNHSKYPAPSSSSSSSSSSSSSSPSSVNYSESNSTDSTKSQHHSSTSNQETSDSEMEMEAEHYPNGVLGSMSTRIVNGAYKHEDLQTDESSMDDRHPRRQLCGGNQAATERIILFGRELQALSEQLGREYGKNLAHTEMLQDAFSLLAYSDPWSCPVGQQLDPIQREPVCAALNSAILESQNLPKQPPLMLALGQASECLRLMARAGLGSCSFARVDDYLH [RANBP10]”, the “solubility change mitosis (log2)” value in data set [1] was -0.193. Also, in data set [2], the “solubility in G1/S (log2)” value worked out at 0.151. The thermal stability score was 0.428 in data set [3] (setting [5]) and 0.506 in data set [3] (cell cycle stage: mitosis). Further, the melting temperature stood at 51.4 °C in data set [4] (cell cycle stage: G1/S) and 51.1 °C in data set [4] (cell cycle stage: mitosis).
With “MGLLAFLKTQFVLHLLVGFVFVVSGLVINFVQLCTLALWPVSKQLYRRLNCRLAYSLWSQLVMLLEWWSCTECTLFTDQATVERFGKEHAVIILNHNFEIDFLCGWTMCERFGVLGSSKVLAKKELLYVPLIGWTWYFLEIVFCKRKWEEDRDTVVEGLRRLSDYPEYMWFLLYCEGTRFTETKHRVSMEVAAAKGLPVLKYHLLPRTKGFTTAVKCLRGTVAAVYDVTLNFRGNKNPSLLGILYGKKYEADMCVRRFPLEDIPLDEKEAAQWLHKLYQEKDALQEIYNQKGMFPGEQFKPARRPWTLLNFLSWATILLSPLFSFVLGVFASGSPLLILTFLGFVGAASFGVRRLIGVTEIEKGSSYGNQEFKKKE [AGPAT3]”, the “solubility change mitosis (log2)” value in data set [1] was -0.0117. Further, the “solubility in G1/S (log2)” value in data set [2] is -0.0836. The thermal stability score in data set [3] (setting [5]) is -0.691; in data set [3] (cell cycle stage: mitosis) it was -1.45. Further, the figures for the melting temperature in data set [4] (cell cycle stage: G1/S) and in data set [4] (cell cycle stage: mitosis) were 52.2 °C and 52.4 °C, respectively.
For “MVDYSVWDHIEVSDDEDETHPNIDTASLFRWRHQARVERMEQFQKEKEELDRGCRECKRKVAECQRKLKELEVAEGGKAELERLQAEAQQLRKEERSWEQKLEEMRKKEKSMPWNVDTLSKDGFSKSMVNTKPEKTEEDSEEVREQKHKTFVEKYEKQIKHFGMLRRWDDSQKYLSDNVHLVCEETANYLVIWCIDLEVEEKCALMEQVAHQTIVMQFILELAKSLKVDPRACFRQFFTKIKTADRQYMEGFNDELEAFKERVRGRAKLRIEKAMKEYEEEERKKRLGPGGLDPVEVYESLPEELQKCFDVKDVQMLQDAISKMDPTDAKYHMQRCIDSGLWVPNSKASEAKEGEEAGPGDPLLEAVPKTGDEKDVSV [CDC37]”, the “solubility change mitosis (log2)” value in data set [1] turned out to be 0.0658. The “solubility in G1/S (log2)” value in data set [2] was 0.24. Further, the values for the thermal stability score in data set [3] (setting [5]) and in data set [3] (cell cycle stage: mitosis) were 0.438 and -0.732, respectively. In addition, the melting temperature was 52.1 °C in data set [4] (cell cycle stage: G1/S) and 52.6 °C in data set [4] (cell cycle stage: mitosis).
For “MADKVLKEKRKLFIRSMGEGTINGLLDELLQTRVLNKEEMEKVKRENATVMDKTRALIDSVIPKGAQACQICITYICEEDSYLAGTLGLSADQTSGNYLNMQDSQGVLSSFPAPQAVQDNPAMPTSSGSEGNVKLCSLEEAQRIWKQKSAEIYPIMDKSSRTRLALIICNEEFDSIPRRTGAEVDITGMTMLLQNLGYSVDVKKNLTASDMTTELEAFAHRPEHKTSDSTFLVFMSHGIREGICGKKHSEQVPDILQLNAIFNMLNTKNCPSLKDKPKVIIIQACRGDSPGVVWFKDSVGVSGNLSLPTTEEFEDDAIKKAHIEKDFIAFCSSTPDNVSWRHPTMGSVFIGRLIEHMQEYACSCDVEEIFRKVRFSFEQPDGRAQMPTTERVTLTRCFYLFPGH [CASP1]”, the “solubility change mitosis (log2)” value in data set [1] is -0.0916. In addition, the “solubility in G1/S (log2)” value in data set [2] stood at 0.0768. For the same substance, the thermal stability score in data set [3] (setting [5]) was 0.996; in data set [3] (cell cycle stage: mitosis), 1.73. Moreover, the results for the melting temperature in data set [4] (cell cycle stage: G1/S) and in data set [4] (cell cycle stage: mitosis) were 51.5 °C and 49.6 °C, respectively.

Values taken from the supplement of paper PMC5998384.
